The values below are quoted from earlier work in publication PMC3839795.

The data set addresses Asp3 (position 2, ----SDNKTYG). Nature of the data set: NMR. The following applies: free peptide in solution (details not stated).

B1: Heptapeptide derived from turkey ovomucoid third domain (OMTKY3) (Meleagris gallopavo) (peptide)
chain: SDNKTYG
Regarding B1, the pKa result was “about 3.6”.
